In paper PMC12089286, “LLPS REDIFINE allows the biophysical characterization of multicomponent condensates without tags or labels”:

Legend:
Nu(247-419) = Nu(247-419) (SARS-CoV-2, UniProt P0DTC9 247-419); test: NMR (1D, DOSY); settings: protein: recombinant; chain copies: 2; label: none (NMR); 3' Cy5 (microscopy); hairpin
PTBP1 [1] = biological target: T1, PTBP1 (UniProt P26599 1-557); test: NMR diffusion (REDIFINE); 1:1 soluble complex; koff 1.41 s-1, kon 3e6 M-1 s-1; 10 mM phosphate pH 6.5, 20 mM NaCl; EMSA: 20 mM HEPES pH 8.0, 100 mM KCl, 1.5 mM MgCl2, 10% glycerol, 0.5 mM DTT, native 10% TBE gel; NMR: PTBP1 in 10 mM sodium phosphate pH 6.5, 20 mM NaCl; Nu in 20 mM sodium phosphate pH 6.0, 50 mM NaCl; 298 K; settings: protein: recombinant; tags: pET28a; label: 5'-32P (EMSA); none (NMR); single-stranded
PTBP1 [2] = biological target: T1, PTBP1; test: EMSA; 1.5 mM Mg2+, 100 mM KCl, pH 8.0; EMSA: 20 mM HEPES pH 8.0, 100 mM KCl, 1.5 mM MgCl2, 10% glycerol, 0.5 mM DTT, native 10% TBE gel; NMR: PTBP1 in 10 mM sodium phosphate pH 6.5, 20 mM NaCl; Nu in 20 mM sodium phosphate pH 6.0, 50 mM NaCl; 298 K; settings: protein: recombinant; tags: pET28a; label: 5'-32P (EMSA); none (NMR); single-stranded

Binder | binding result (Nu(247-419)) | Kd (PTBP1 [1]) | Kd (PTBP1 [2])
GGUUCACCGAGGCCACGCGGAGUACGAUCGAGUGUACAGUGAACC (structured_RNA) [s2m RNA] | binds |  | 
GGGAGAUCUCUAAAAAUCUCUAAAAAUCUCUAAAAA (ssRNA) [3xUCUCU RNA] |  | 500 ± 100 nM | 490 ± 20 nM
